For experiment [1], the target named is T1, FPRL1 (Homo sapiens, UniProt P25090).
T1 sequence (P25090 1-351): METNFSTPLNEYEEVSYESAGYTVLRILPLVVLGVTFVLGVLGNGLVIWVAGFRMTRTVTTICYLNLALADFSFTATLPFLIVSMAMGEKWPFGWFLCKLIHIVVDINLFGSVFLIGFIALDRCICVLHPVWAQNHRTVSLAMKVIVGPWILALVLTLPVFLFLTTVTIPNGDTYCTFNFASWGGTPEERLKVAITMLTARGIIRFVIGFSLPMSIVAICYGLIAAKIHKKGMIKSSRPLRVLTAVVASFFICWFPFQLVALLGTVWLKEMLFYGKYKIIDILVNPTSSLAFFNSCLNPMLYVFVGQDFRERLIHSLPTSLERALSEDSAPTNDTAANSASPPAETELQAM
To be noted: reported in the literature; cited from earlier work.

For experiment [2], the target named is T2, FPRL2 (Homo sapiens, UniProt P25089).
T2 sequence (P25089 1-353): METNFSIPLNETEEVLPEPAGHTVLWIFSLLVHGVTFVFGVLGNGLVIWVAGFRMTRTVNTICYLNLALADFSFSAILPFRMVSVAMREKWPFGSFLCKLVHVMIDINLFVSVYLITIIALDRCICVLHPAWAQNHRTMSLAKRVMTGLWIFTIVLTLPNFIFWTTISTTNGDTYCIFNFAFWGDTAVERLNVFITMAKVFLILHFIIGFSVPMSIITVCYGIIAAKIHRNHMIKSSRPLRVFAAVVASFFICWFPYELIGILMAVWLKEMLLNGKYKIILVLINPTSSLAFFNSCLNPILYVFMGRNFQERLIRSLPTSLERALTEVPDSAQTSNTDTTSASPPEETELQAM
To be noted: reported in the literature; cited from earlier work.

Another experiment addresses T3, hFPRL2 (Homo sapiens, UniProt P25089).
T3 construct: expressed in transfected cells; host or cells: CHO cells (clone No. 17)
T3 sequence (P25089 1-353 G94A/S211T/D338H): T2 sequence (P25089 1-353) with G94A, S211T, D338H
Put plainly: Inhibition of forskolin-increased intracellular cAMP in human FPRL2-expressing CHO cells. The format is cell-based. To be noted: 1 μM forskolin. The protocol: (§1) CHO cells expressing each receptor were washed with an assay medium (HBSS (GibcoBRL) supplemented with 0.1% bovine serum albumin and 0.2 mM IBMX) and then cultured at 37° C. in 5% CO2 for 30 minutes. Humanin (Peptide Research Laboratory, Co.) or related substances diluted at each concentration with the assay buffer were added thereto, and then forskolin was added at a final concentration of 1 μM. The cells were cultured at 37° C. in 5% CO2 for 30 minutes. The culture supernatant was discarded, and the amount of cAMP in the cells was measured with a plate reader (ARVO sx multi-label counter, manufactured by Wallac) according to a protocol of a cAMP screen kit (Applied Biosystems). Assuming that the amount of cAMP produced in the cells to which 1 μM forskolin had been added was 100% and the amount of cAMP produced in the cells to which forskolin had not been added was 0%, the amount of cAMP upon addition of each agonist is shown in %. The concentration at which the amount of cAMP produced was inhibited by 50% (EC50) was calculated from logit-log plotting.

The target of the next experiment is T4, mFPRL2 (Mus musculus, UniProt O88536).
T4 construct: expressed in transfected cells; host or cells: CHO cells (clone No. 15); expression vector pAKKO-111H
T4 sequence (O88536 1-351): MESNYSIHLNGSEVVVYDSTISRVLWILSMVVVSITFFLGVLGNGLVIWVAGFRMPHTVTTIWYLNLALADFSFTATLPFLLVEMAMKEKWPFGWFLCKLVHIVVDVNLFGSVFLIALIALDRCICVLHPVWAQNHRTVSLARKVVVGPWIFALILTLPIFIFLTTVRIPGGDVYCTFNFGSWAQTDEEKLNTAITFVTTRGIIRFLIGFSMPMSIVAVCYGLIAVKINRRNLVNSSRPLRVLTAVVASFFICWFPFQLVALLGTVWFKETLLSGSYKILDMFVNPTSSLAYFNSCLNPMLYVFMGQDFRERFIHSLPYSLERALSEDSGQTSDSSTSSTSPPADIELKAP
Put plainly: Inhibition of forskolin-increased intracellular cAMP in mouse FPRL2-expressing CHO cells. The format is cell-based. Conditions: 1 μM forskolin. How it is done:
as §1

The subject of a further experiment is rFPRL1. Put plainly: Inhibition of forskolin-increased intracellular cAMP in rat FPRL1-expressing CHO cells. The format is cell-based. To be noted: 1 μM forskolin. The protocol: as §1
The target in experiment [3] is T1, FPRL1. Put plainly: Inhibition of forskolin-increased intracellular cAMP in human FPRL1-expressing CHO cells. In kind it is cell-based. On the set-up: expressed in transfected cells; host or cells: CHO cells (clone No. 8; the title also lists a 'Human FPRL1' clone No. 14). Conditions: 1 μM forskolin.
Experiment [4] has as its target T2, FPRL2. To be noted: reported in the literature; cited from earlier work. This is another data set of the same source.
In a further experiment the test system is FPRL1-GFP. Put plainly: Inhibition of forskolin-increased intracellular cAMP in CHO cells expressing FPRL1-GFP. In kind it is cell-based. To be noted: 1 μM forskolin; CHO cells expressing FPRL1-GFP compared with mock CHO cells (vector only). How it is done:
CHO cells expressing FPRL1-GFP were washed with an assay medium (HBSS (GibcoBRL) supplemented with 0.1% bovine serum albumin and 0.2 mM IBMX) and then cultured at 37° C. in 5% CO2 for 30 minutes. Humanin (Peptide Research Laboratory, Co.) or related substances diluted at each concentration with the assay buffer were added thereto, and then forskolin was added at a final concentration of 1 μM. The cells were cultured at 37° C. in 5% CO2 for 30 minutes. The culture supernatant was discarded, and the amount of cAMP in the cells was measured with a plate reader (ARVO sx multi-label counter, manufactured by Wallac) according to a protocol of a cAMP screen kit (Applied Biosystems).

Another experiment concerns nerve cells. Conditions: reported in the literature; cited from earlier work.

Where a chain is given by its changes, count along the chain named. Ends that are not written are not given here. * marks the point of attachment. For = O=C*

rFPRL1, sequence (as listed by the source): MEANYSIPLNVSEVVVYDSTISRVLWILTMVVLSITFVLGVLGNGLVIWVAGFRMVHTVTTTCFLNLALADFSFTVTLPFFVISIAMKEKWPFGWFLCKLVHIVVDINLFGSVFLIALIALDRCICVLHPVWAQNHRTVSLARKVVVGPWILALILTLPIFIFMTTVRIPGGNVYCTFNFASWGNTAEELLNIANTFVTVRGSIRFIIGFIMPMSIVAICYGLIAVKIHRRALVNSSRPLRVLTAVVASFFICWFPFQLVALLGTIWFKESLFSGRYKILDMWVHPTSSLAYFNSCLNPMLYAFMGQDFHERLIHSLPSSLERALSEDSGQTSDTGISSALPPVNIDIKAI

For `CCCCC[C@H](O)/C=C/C=C\C=C\C=C\[C@@H](O)[C@@H](O)CCCC(=O)O` [lipoxin A4], the “agonist of FPRL1” value on FPRL1 [1] is “Agonists”.
Regarding “Aβ42: β-amyloid (1-42), intrinsic substance reported as agonist of FPRL1”, in the experiment with FPRL1 [1], the “agonist of FPRL1” value is “agonist”.
For “Trp-Lys-Tyr-Met-Val-dMet-NH2 [W-Peptide]”, the “agonist of FPRL2” value in the experiment with FPRL2 [2] was “agonist”.
Consider “[Gly^14]-humanin: [Gly^14]-human humanin (1-24) consisting of the amino acid sequence represented by SEQ ID NO: 4 (MAPRGFSCLLLLTGEIDLPVKRRA; Human)”, for which the “reaction with hFPRL2 (inhibition of forskolin-increased intracellular cAMP)” value with hFPRL2 was “strongly”. For the same compound, the “reaction with mFPRL2 (inhibition of forskolin-increased intracellular cAMP)” value in the experiment with mFPRL2 was “react”. In addition, the “reaction with rFPRL1 (inhibition of forskolin-increased intracellular cAMP)” value with rFPRL1 is reported as “react”. Also, in the experiment with FPRL1 [3], the “reaction with hFPRL1 (inhibition of forskolin-increased intracellular cAMP)” value is “react”.
As to “formyl-Humanin: human humanin (1-24), SEQ ID NO: 3, wherein Met of the N-terminus is formylated”, in the experiment with mFPRL2, the “reaction with mFPRL2 (inhibition of forskolin-increased intracellular cAMP)” value is on record as “react”. In addition, in the experiment on rFPRL1, the “reaction with rFPRL1 (inhibition of forskolin-increased intracellular cAMP)” value is on record as “react”.
As to formyl-Met-Leu-Phe [fMLF], at FPRL2 [4], the “reaction of human FPRL2 with fMLF” value is “does not react”.
Take “humanin: human humanin (1-24) consisting of the amino acid sequence represented by SEQ ID NO: 3”: the “decrease of the amount of intracellular cAMP increased by addition of forskolin” value in the experiment on FPRL1-GFP is “dose-dependent and specific decrease”. For the same compound, the “reaction with hFPRL2 (inhibition of forskolin-increased intracellular cAMP)” value with hFPRL2 is reported as “strongly”. Moreover, the “reaction with mFPRL2 (inhibition of forskolin-increased intracellular cAMP)” value with mFPRL2 was “react”. Moreover, the “reaction with rFPRL1 (inhibition of forskolin-increased intracellular cAMP)” value with rFPRL1 is “react”. Besides, in the experiment with nerve cells, the “death of nerve cells into which the familial Alzheimer's disease gene had been introduced” value is “inhibited” and the “nerve apotosis induced by adding β-amyloid” value is reported as “inhibited”. Further, in the experiment with FPRL1 [3], the “reaction with hFPRL1 (inhibition of forskolin-increased intracellular cAMP)” value is listed as “react”.
“mt-formyl-Humanin: human humanin (1-21), SEQ ID NO: 6, wherein Met at the N-terminus is formylated (For-MAPRGFSCLLLLTSEIDLPVK)”: the “reaction with mFPRL2 (inhibition of forskolin-increased intracellular cAMP)” value with mFPRL2 is “react”. The “reaction with rFPRL1 (inhibition of forskolin-increased intracellular cAMP)” value in the experiment on rFPRL1 is “react”. The “reaction with hFPRL1 (inhibition of forskolin-increased intracellular cAMP)” value with FPRL1 [3] is “strongly”.
Consider “mt-formyl-rattin: rat humanin (1-21), SEQ ID NO: 9, wherein Met at the N-terminus is formylated (For-MAKRGFNCLLLSISEIDLPVK)”, for which the “reaction with mFPRL2 (inhibition of forskolin-increased intracellular cAMP)” value in the experiment with mFPRL2 is “react”. Besides, the “reaction with rFPRL1 (inhibition of forskolin-increased intracellular cAMP)” value with rFPRL1 is on record as “react”. Also, in the experiment with FPRL1 [3], the “reaction with hFPRL1 (inhibition of forskolin-increased intracellular cAMP)” value is reported as “strongly”.

The values are drawn from patent US7172876B2, “Method of screening therapeutic agents for nerve degeneration associated diseases” (Takeda Pharmaceutical Company Limited, priority 2002, dated 2007).
